Laboratory results: publication PMC6746865, “Identification of telomerase RNAs in species of the Yarrowia clade provides insights into the co-evolution of telomerase, telomeric repeats and telomere-binding proteins”

Target: T1, Tay1p (YlTay1p) (Yarrowia lipolytica, UniProt Q6C9I6 1-406)
T1 sequence: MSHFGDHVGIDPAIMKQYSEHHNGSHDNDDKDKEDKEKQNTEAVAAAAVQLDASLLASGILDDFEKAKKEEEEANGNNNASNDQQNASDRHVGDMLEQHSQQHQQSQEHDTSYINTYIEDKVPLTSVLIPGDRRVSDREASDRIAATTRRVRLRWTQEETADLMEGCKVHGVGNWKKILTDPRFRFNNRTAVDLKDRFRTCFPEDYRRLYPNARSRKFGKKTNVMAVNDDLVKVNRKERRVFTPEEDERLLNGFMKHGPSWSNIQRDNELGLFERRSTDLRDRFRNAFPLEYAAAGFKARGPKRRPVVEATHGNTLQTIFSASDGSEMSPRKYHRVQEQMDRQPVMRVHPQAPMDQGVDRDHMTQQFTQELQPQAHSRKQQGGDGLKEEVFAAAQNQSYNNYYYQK
Assay: EMSA; 20 mM HEPES-NaOH pH 7.3, 100 mM NaCl, 16 nM dsDNA probe (3-fold molar excess of unlabelled C strand used in annealing), 10 min at room temperature; 6% PAGE in cold 0.5x TBE
Details: protein: recombinant; label: 5'-32P on G strand; blunt

B1: Y. lipolytica telomeric probe YlipTEL (2 repeats) (dsDNA)
DNA 1: TTAGTCAGGGTTAGTCAGGG
DNA 2: CCCTGACTAACCCTGACTAA
binding result: binds
